The supplement of paper PMC10126150
± gives the standard deviation of the averaged measurements.

Tested on: ATP
Assay: switch fluorescence ratio, 500 uM ATP over buffer (Cy3 cluster intensity, sum of 5 cycles each) (fold (ratio)); higher = stronger signal-on switching upon ATP binding; sequences stand for … in TCGTCGGCAGCGTCAGATGTGTATAAGAGACAGTTTTTTTTTTTTTTTTTTTTTTTTT…TC
Details: aptamer strand: ATP DNA aptamer (quencher-CACCTGGGGGAGTATTGCGGAGGAAGG + anchor), 100 nM annealed; ATP concentration: 500 uM
Method in brief: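 Values give the fluorescence ratio for each switch-domain sequence, averaged from per-cluster ratios of summed target-cycle to summed buffer-cycle Cy3 intensity. The Cy3-labelled switching-strand clusters sat on a modified Illumina MiSeq flow-cell, were annealed to 100 nM quencher-labelled ATP aptamer, and were imaged in selection buffer, then after 15 min with 500 uM ATP at 22 °C. Five cycles ran with NaOH stripping and re-annealing between them, and clusters outside 100-1000 RFU were excluded.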
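Also: ATP exposure 15 min at 22 °C before imaging.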

Sequence | switch fluorescence ratio
CGATCGAGGA | 0.991 ± 0.036
CGATCGGTCA | 1.0097 ± 0.00057
CGATGAGAGT | 1.03 ± 0.064
CGATGAGGTA | 0.968 ± 0.06
CGATGGTTGA | 1 ± 0.042
CGATGTAGTC | 1.05 ± 0.022
CGATGTGTAC | 2.71 ± 0.17
CGATGTTTGG | 0.988 ± 0.025
CGATTAGGTA | 1 ± 0.041
CGATTATCGG | 0.999 ± 0.014
CGATTCACTT | 1.02 ± 0.021
CGATTGCATT | 1.27 ± 0.045
CGATTGCTGG | 0.989 ± 0.069
CGATTGTATG | 0.992 ± 0.054
CGATTTACTT | 1.02 ± 0.04
CGATTTGAGG | 0.9967 ± 0.0079
CGATTTGGAG | 0.995 ± 0.012
CGATTTGGGG | 0.968 ± 0.017
CGATTTTAGG | 1 ± 0.035
CGATTTTGGG | 0.9844 ± 0.0047
CGATTTTTTC | 0.9774 ± 0.003
CGCAAACGCA | 3.62 ± 0.17
CGCAAAGAGG | 1.18 ± 0.11
CGCACCGGGT | 1.05 ± 0.015
CGCACCGGTG | 1.02 ± 0.032
CGCACGATGC | 2.89 ± 0.32

Sequence | switch fluorescence ratio
CGCACTTCTG | 1.02 ± 0.024
CGCAGCGATG | 2.66 ± 0.11
CGCAGGGGGG | 1.09 ± 0.034
CGCAGGGTTA | 1.02 ± 0.052
CGCAGGTTAG | 1.11 ± 0.025
CGCAGTTATT | 1.08 ± 0.014
CGCAGTTGGA | 1.03 ± 0.039
CGCATAAATA | 1.16 ± 0.034
CGCATACGGT | 4.124 ± 0.029
CGCATATGTA | 1.08 ± 0.033
CGCATGAGTT | 1.017 ± 0.0098
CGCATTAAAA | 0.969 ± 0.024
CGCATTGTGG | 1.02 ± 0.042
CGCATTTAGG | 1.08 ± 0.027
CGCATTTAGT | 1.12 ± 0.0063
CGCATTTGGT | 1.07 ± 0.036
CGCCAGAAGG | 0.9883 ± 0.0036
CGCCAGCAGA | 1.33 ± 0.14
CGCCAGCATA | 2.82 ± 0.31
CGCCATATTT | 1.03 ± 0.016
CGCCATGGAA | 1 ± 0.017
CGCCCCGTCA | 0.954 ± 0.036
CGCCCGCTGT | 1.72 ± 0.65
CGCCCGGGGG | 1.32 ± 0.45
CGCCGCACTT | 3.93 ± 1.1
CGCCGCTTCA | 1.05 ± 0.067

Sequence | switch fluorescence ratio
CGCCGGGTTT | 1.02 ± 0.018
CGCCTAGAGG | 1.02 ± 0.032
CGCCTCATTT | 1 ± 0.03
CGCCTGGCGT | 0.9568 ± 0.0077
CGCCTTTGTG | 1 ± 0.019
CGCGAAGTTG | 0.999 ± 0.057
CGCGCAGGGG | 1.69 ± 0.076
CGCGCATGGT | 1.14 ± 0.033
CGCGCGGATT | 1.04 ± 0.034
CGCGCGGTGT | 1.17 ± 0.2
CGCGGGCCGT | 0.981 ± 0.024
CGCGGGGATA | 1.18 ± 0.23
CGCGGGTTGC | 1.06 ± 0.042
CGCGGTATGG | 1.04 ± 0.022
CGCGGTGGGA | 1.02 ± 0.026
CGCGGTGGGC | 1.005 ± 0.0026
CGCGGTTGC | 1.24 ± 0.038
CGCGTAGACA | 0.992 ± 0.055
CGCGTCGGGA | 0.976 ± 0.044
CGCGTGGGCC | 1.03 ± 0.026
CGCGTTAGA | 1.04 ± 0.017
CGCGTTGAAA | 1.038 ± 0.0035
CGCGTTGGGG | 1.03 ± 0.044
CGCTAAAGCC | 1.156 ± 0.003
CGCTACTGTT | 1.079 ± 0.0014
CGCTACTTGA | 1.027 ± 0.0082

Sequence | switch fluorescence ratio
CGCTATGTTT | 1.02 ± 0.019
CGCTATTTCT | 1.1 ± 0.051
CGCTCAAAGG | 1.03 ± 0.015
CGCTCAGTTG | 1.13 ± 0.0039
CGCTCCGATG | 1.26 ± 0.025
CGCTCCGGAG | 1.18 ± 0.14
CGCTCCGGGG | 1.06 ± 0.07
CGCTCTTATT | 0.978 ± 0.016
CGCTCTTTTG | 1.02 ± 0.061
CGCTGCTCGC | 1.3253 ± 0.00064
CGCTGGCATG | 1 ± 0.032
CGCTGGGTGG | 1.02 ± 0.037
CGCTGTCGGA | 1.014 ± 0.0078
CGCTGTGGCG | 0.983 ± 0.036
CGCTGTGGGC | 0.988 ± 0.044
CGCTTAAGTT | 1.004 ± 0.0013
CGCTTAATTA | 1.01 ± 0.041
CGCTTAGCCA | 1.01 ± 0.021
CGCTTAGGCA | 1.02 ± 0.053
CGCTTCTCTT | 1.03 ± 0.011
CGCTTGGGGT | 0.9626 ± 0.0092
CGCTTGGTCG | 1.03 ± 0.016
CGCTTGTATT | 1.02 ± 0.013
CGCTTTGGAA | 0.964 ± 0.064
CGCTTTGGTT | 1.04 ± 0.012
CGCTTTTCTT | 1.01 ± 0.0035

Sequence | switch fluorescence ratio
CGCTTTTGCT | 0.969 ± 0.029
CGGAAAGCG | 1 ± 0.026
CGGAAATGGG | 1.023 ± 0.0022
CGGAACGAGA | 0.983 ± 0.025
CGGAAGAAAT | 1.02 ± 0.017
CGGAATGCAG | 1.076 ± 0.0032
CGGAATTTTT | 0.971 ± 0.016
CGGACATTCA | 1.041 ± 0.0082
CGGACCGGGA | 1.06 ± 0.012
CGGACGACGG | 1.01 ± 0.027
CGGACGGGTG | 1.02 ± 0.018
CGGACGTTTT | 1.17 ± 0.13
CGGACTAAGA | 1.04 ± 0.012
CGGACTAGTT | 0.994 ± 0.022
CGGACTCCCA | 1.753 ± 0.014
CGGACTGATT | 1 ± 0.064
CGGAGAGATG | 1.042 ± 0.0034
CGGAGATACG | 1.02 ± 0.029
CGGAGCTCTG | 1.06 ± 0.015
CGGAGGAACG | 1.01 ± 0.038
CGGAGGACAA | 0.976 ± 0.012
CGGAGGACCA | 0.978 ± 0.023
CGGAGGACGG | 1.03 ± 0.032
CGGAGGGAAA | 0.963 ± 0.033
CGGAGGGATC | 1.12 ± 0.037
CGGAGGGGGT | 1.016 ± 0.0052

Sequence | switch fluorescence ratio
CGGAGGTAGG | 1.01 ± 0.043
CGGAGGTATA | 1.14 ± 0.017
CGGAGGTTTC | 1.02 ± 0.03
CGGAGTACAG | 1.09 ± 0.11
CGGAGTAGGG | 1.058 ± 0.0023
CGGAGTTAGC | 1.13 ± 0.028
CGGATAGGTT | 1.01 ± 0.017
CGGATATATA | 1.08 ± 0.049
CGGATCAGAA | 0.9956 ± 0.001
CGGATCCCGA | 0.995 ± 0.018
CGGATCGGGG | 1.17 ± 0.15
CGGATCGGGT | 1.004 ± 0.0015
CGGATCTGGT | 0.968 ± 0.024
CGGATCTTTA | 1.01 ± 0.037
CGGATGAATG | 0.999 ± 0.029
CGGATGCATG | 1.02 ± 0.046
CGGATGGTGT | 0.97 ± 0.029
CGGATTAATT | 0.9862 ± 0.0024
CGGATTCGGA | 1.012 ± 0.01
CGGATTGAAG | 1.007 ± 0.0092
CGGATTTTAT | 1.02 ± 0.035
CGGCAAGTAT | 1.063 ± 0.0089
CGGCAGCGAG | 1.078 ± 0.0015
